Experimental findings from article PMC12136220 are described below.

Assay [1] deals with Listeria adhesion protein (LAP) (Listeria monocytogenes). The assay is described as follows: cryo-EM structure; purified LAP mixed with Hsp60 at 2:1, incubated 4 h at 4°C; Titan Krios 300 kV with K3 detector, cryoSPARC; LAP-Hsp60 map refined in C1, Hsp60 alone in C7, LAP dimer in C2.
The target of assay [2] is human recombinant Hsp60 (human) (UniProt P10809).
The target of assay [3] is Listeria adhesion protein (LAP) (Listeria monocytogenes). The assay is described as follows: cryo-EM structure; LAP alone, 1.2 mg/ml, Titan Krios 300 kV with K3 detector, cryoSPARC.
The target of assay [4] is human recombinant Hsp60 (human) (UniProt P10809). The source holds these as a separate data set.

Several values for one entry are separate records, joined by “and”; a condition that tells them apart may be missing. Equal values may be shown once.

Chain of human recombinant Hsp60 (human) (P10809 27-573): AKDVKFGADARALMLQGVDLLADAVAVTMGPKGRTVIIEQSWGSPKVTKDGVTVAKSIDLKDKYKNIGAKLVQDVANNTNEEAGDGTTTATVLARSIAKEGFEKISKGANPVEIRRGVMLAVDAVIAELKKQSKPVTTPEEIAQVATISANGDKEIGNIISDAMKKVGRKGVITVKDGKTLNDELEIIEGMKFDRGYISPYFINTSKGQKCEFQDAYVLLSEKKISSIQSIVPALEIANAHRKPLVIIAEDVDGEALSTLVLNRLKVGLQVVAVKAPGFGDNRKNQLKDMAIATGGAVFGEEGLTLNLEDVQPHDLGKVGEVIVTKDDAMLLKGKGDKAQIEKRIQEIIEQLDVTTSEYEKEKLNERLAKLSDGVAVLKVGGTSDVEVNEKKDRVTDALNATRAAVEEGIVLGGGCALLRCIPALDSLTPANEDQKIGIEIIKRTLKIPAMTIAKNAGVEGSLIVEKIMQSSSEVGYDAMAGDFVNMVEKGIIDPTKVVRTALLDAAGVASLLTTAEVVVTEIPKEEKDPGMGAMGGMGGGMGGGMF

In the case of “Listeria adhesion protein (LAP) (natural protein)”, the stoichiometry N was 4 and 2 in assay [1]; 2 and 4 in assay [3]. Besides, in assay [2], the FD4 paracellular flux through Caco-2 monolayers in 1 h, relative to PBS control worked out at 264%. Also, the FD4 (FITC 4-kDa dextran) permeability through Caco-2 monolayers after 1 h, LAP 0.01-5 μg/mL in assay [4] stood at 80%.
Consider “N2 subdomain of LAP (domain or fragment)”, for which, in assay [2], the FD4 paracellular flux through Caco-2 monolayers in 1 h, relative to PBS control is 149% and the decrease of TEER of Caco-2 monolayers in 1 h, relative to full-length LAP (100%) is 96%.
For “N1 subdomain of LAP (domain or fragment)”, in that order: 133% and 78%.

A word on the stoichiometry N: it is a count of units in the complex or per binding partner.
